Assays:
Type in all cases: in vivo
[1] = test system: Arabidopsis thaliana T1 plants; test: Mesotrione tolerance of transgenic Arabidopsis thaliana T1 plants (spray, bleached leaf area grade, damage score); design: Scores: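 damage score 0-100 computed as Σ(N×S)/(T×M)×100 over grades 0-3 with higher meaning more damage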; conditions: for Classification and statistics of the grade of pesticide damage Grade 0 / Classification and statistics of the grade of pesticide damage Grade 1 / Classification and statistics of the grade of pesticide damage Grade 2 / Classification and statistics of the grade of pesticide damage Grade 3: number of plants in grade; for Classification and statistics of the grade of pesticide damage: Grade 0 / Classification and statistics of the grade of pesticide damage: Grade 1 / Classification and statistics of the grade of pesticide damage: Grade 2 / Classification and statistics of the grade of pesticide damage: Grade 3: number of plants
Outline: (§1)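 Damage was assessed by bleaching grade (0 none; 1 <50%; 2 >50%; 3 100% of leaf area) one week after spraying. Sprays on 18-day-old T1 and wild-type plants used field-rate multiples: topramezone 25–200, isoxaflutole 35–280, mesotrione 52.5–420 g ai/ha.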

[2] = test system: Arabidopsis thaliana T1 plants; test: Isoxaflutole tolerance of transgenic Arabidopsis thaliana T1 plants (spray, bleached leaf area grade, damage score); conditions: for Classification and statistics of the grade of pesticide damage Grade 0 / Classification and statistics of the grade of pesticide damage Grade 1 / Classification and statistics of the grade of pesticide damage Grade 2 / Classification and statistics of the grade of pesticide damage Grade 3: number of plants in grade; for Classification and statistics of the grade of pesticide damage: Grade 0 / Classification and statistics of the grade of pesticide damage: Grade 1 / Classification and statistics of the grade of pesticide damage: Grade 2 / Classification and statistics of the grade of pesticide damage: Grade 3: number of plants;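 as to Scores: Weighted damage index from 0 to 100 where higher means more damage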
Outline: as §1

[3] = test system: Arabidopsis thaliana T1 plants; test: Topramezone tolerance of transgenic Arabidopsis thaliana T1 plants (spray, bleached leaf area grade, damage score); conditions: for Classification and statistics of the grade of pesticide damage: Grade 0 / Classification and statistics of the grade of pesticide damage: Grade 1 / Classification and statistics of the grade of pesticide damage: Grade 2 / Classification and statistics of the grade of pesticide damage: Grade 3: number of plants; for Classification and statistics of the grade of pesticide damage: Grade 0 / Classification and statistics of the grade of pesticide damage: Grade 1 / Classification and statistics of the grade of pesticide damage: Grade 2 / Classification and statistics of the grade of pesticide damage: Grade 3 / Scores / Resistance evaluation: 7 DAT, Table 1; for Scores: pesticide damage score 0-100
From the text: T1 transformants were initially selected from the untransformed seeds using a glufosinate selection scheme. The Arabidopsis thaliana T1 plants (AsHPPD-02) into which the AsHPPD-02 nucleotide sequence was introduced, the Arabidopsis thaliana T1 plants (AsHPPDm-F372A-02) into which the AsHPPDm-F372A-02 nucleotide sequence was introduced, the Arabidopsis thaliana T1 plants (AsHPPDm-F383W-02) into which the AsHPPDm-F383W-02 nucleotide sequence was introduced, the Arabidopsis thaliana T1 plants (AsHPPDm-F372A-F383W-02) into which the AsHPPDm-F372A-F383W-02 nucleotide sequence was introduced, the Arabidopsis thaliana T1 plants (DBN11726N) into which the control recombinant expression vector DBN11726N was introduced, and the wild-type Arabidopsis thaliana plants (CK) (18 days after sowing) were sprayed respectively with topramezone at three concentrations (100 g ai/ha (four-fold field concentration, 4×), 200 g ai/ha (eight-fold field concentration, 8×), and 0 g ai/ha (water, 0×)), isoxaflutole at three concentrations (140 g ai/ha (two-fold field concentration, 2×), 280 g ai/ha (four-fold field concentration, 4×), and 0 g ai/ha (water, 0×)), and mesotrione at three concentrations (210 g ai/ha (two-fold field concentration, […]), 420 g ai/ha (four-fold field concentration, 4×), and 0 g ai/ha (water, 0×)), to determine the tolerance of Arabidopsis thaliana to the herbicides. The degree of damage caused by the herbicide was measured for each plant according to the proportion of bleached leaf area (the proportion of bleached leaf area=bleached leaf area/total leaf area×100%) 7 days after spraying (7 DAT): the case where there is basically no bleached phenotype is defined as grade 0, the case where the proportion of bleached leaf area is less than 50% is defined as grade 1, the case where the proportion of bleached leaf area is more than 50% is defined as grade 2, and the case where the proportion of bleached leaf area is 100% grade is defined as grade 3.
According to the method as described above in point 6 of Example 1, the aforementioned Arabidopsis thaliana T1 plants and wild-type Arabidopsis thaliana plants (CK) (18 days after sowing) were sprayed respectively with topramezone at three concentrations (25 g ai/ha (one-fold field concentration, 1×). 100 g ai/ha (four-fold field concentration, 4×), and 0 g ai/ha (water, 0×)), isoxaflutole at three concentrations (35 g ai/ha (half-fold field concentration, 0.5×). 70 g ai/ha (one-fold field concentration, 1×), and 0 g ai/ha (water, 0×)), and mesotrione at three concentrations (52.5 g ai/ha (half-fold field concentration, 0.5×), 105 g ai/ha (one-fold field concentration, 1×), and 0 g ai/ha (water, 0×)) to detect the tolerance of Arabidopsis thaliana to the herbicides.
According to the method as described above in point 6 of Example 1, the aforementioned Arabidopsis thaliana T1 plants and wild-type Arabidopsis thaliana plants (CK) (18 days after sowing) were sprayed with topramezone at three different concentrations (i.e., 100 g ai/ha (four-fold field concentration, 4×), 200 g ai/ha (eight-fold field concentration, 8×) and 0 g ai/ha (water, 0×)), isoxaflutole at three different concentrations (i.e., 140 g ai/ha (two-fold field concentration, 2×), 280 g ai/ha (four-fold field concentration, 4×) and 0 g ai/ha (water, 0×)), and mesotrione at three different concentrations (i.e., 210 g ai/ha (two-fold field concentration, 2×), 420 g ai/ha (four-fold field concentration, 4×) and 0 g ai/ha (water, 0×)) respectively to detect the herbicide tolerance of Arabidopsis thaliana. […]

[4] = mesotrione 210 g ai/ha (two-fold field concentration), 7 DAT, Table 3
[5] = mesotrione 420 g ai/ha (4×), 7 DAT, Table 3
[6] = isoxaflutole 140 g ai/ha (2×), 7 DAT, Table 2
[7] = isoxaflutole 280 g ai/ha (4×), 7 DAT, Table 2

B1: AsHPPDm-F372A-02: nucleotide sequence encoding Avena sativa HPPD with F372A; vector DBN11728 (nucleic acid)
DNA: ATGCCACCTACTCCAGCTACAGCTACTGGTGCTGCTGCTGCTGCCGTTACTCCTGAGCACGCTGCCAGGTCATTCCCCAGGGTGGTTCGCGTGAACCCCAGATCTGATAGGTTCCCAGTTCTGAGCTTCCACCATGTTGAGCTGTGGTGCGCTGATGCTGCTTCTGCTGCTGGCAGGTTCTCTTTCGCTCTTGGTGCTCCACTCGCTGCTAGATCTGATCTGTCTACAGGAAATAGCGCTCATGCCTCACTCCTGCTTCGCTCAGGTGCTTTGGCCTTCCTCTTCACCGCTCCATATGCTCCCCCACCTCAGGAGGCTGCTACTGCTGCTGCTACAGCCTCCATTCCAAGCTTCTCAGCTGATGCCGCTAGAACCTTCGCTGCTGCTCATGGACTTGCCGTGAGGTCTGTTGGTGTTCGCGTGGCTGATGCTGCTGAGGCTTTCAGAGTTTCCGTTGCCGGCGGAGCTAGGCCAGCTTTCGCTCCTGCTGATTTGGGACATGGTTTCGGCCTGGCTGAGGTTGAGCTTTACGGTGACGTGGTTCTCCGCTTCGTGTCTTACCCAGATGAGACTGACCTGCCTTTCCTTCCCGGCTTCGAGAGAGTTTCCTCTCCTGGTGCCGTGGATTACGGCCTGACAAGGTTCGACCACGTGGTTGGAAACGTTCCCGAGATGGCTCCAGTGATCGATTACATGAAGGGCTTCCTTGGATTCCATGAGTTCGCCGAGTTCACTGCTGAGGACGTGGGAACCACTGAGTCCGGTTTGAACTCTGTGGTTCTCGCCAACAATTCTGAGGCTGTTTTGCTCCCTCTGAATGAGCCTGTGCATGGAACCAAGAGGAGAAGCCAGATTCAAACTTACCTGGAGTACCACGGTGGCCCTGGAGTTCAGCATATCGCCCTTGCTTCTAATGATGTGTTGCGCACACTCAGAGAGATGCGCGCCAGAACCCCCATGGGAGGTTTCGAGTTCATGGCCCCACCACAGGCTAAGTACTACGAGGGCGTTAGAAGGATTGCTGGAGACGTGTTGAGCGAGGAGCAGATCAAGGAGTGCCAAGAGCTGGGTGTTCTTGTGGATAGGGATGACCAGGGCGTTCTGCTTCAAATTGCCACTAAGCCAGTGGGCGACCGCCCTACATTCTTCCTTGAGATGATTCAAAGAATCGGCTGCATGGAGAAGGATGAGGTTGGACAGGAGTACCAAAAGGGCGGATGCGGTGGCTTCGGAAAGGGTAACTTCAGCGAGTTGTTCAAGTCAATCGAGGACTACGAGAAGAGCCTCGAGGTGAAGCAGTCAGTGGTTGCCCAAAAGTCCTGA
modifications: AsHPPDm-F372A-02 Nucleotide Sequence
notes: vector DBN11728
tolerance to mesotrione (in words) ([1]; in vivo): different degrees of tolerance | Resistance evaluation ([1]; mesotrione 210 g ai/ha): Moderately | Scores ([1]; mesotrione 210 g ai/ha): 31 | Resistance evaluation [1, 4]: moderately | Classification and statistics of the grade of pesticide damage Grade 0 ([1]; mesotrione 210 g ai/ha): 5 | Classification and statistics of the grade of pesticide damage Grade 1 ([1]; mesotrione 210 g ai/ha): 7 | Classification and statistics of the grade of pesticide damage Grade 2 ([1]; mesotrione 210 g ai/ha): 4 | Classification and statistics of the grade of pesticide damage Grade 3 ([1]; mesotrione 210 g ai/ha): 0 | Resistance evaluation ([1]; mesotrione 420 g ai/ha): Poorly resistant | Scores ([1]; mesotrione 420 g ai/ha): 50 | Resistance evaluation [1, 5]: poorly resistant (poorly resistant plants (scores 34-67)) | Classification and statistics of the grade of pesticide damage Grade 0 ([1]; mesotrione 420 g ai/ha): 0 | Classification and statistics of the grade of pesticide damage Grade 1 ([1]; mesotrione 420 g ai/ha): 8 | Classification and statistics of the grade of pesticide damage Grade 2 ([1]; mesotrione 420 g ai/ha): 8 | Classification and statistics of the grade of pesticide damage Grade 3 ([1]; mesotrione 420 g ai/ha): 0 | tolerance to mesotrione (resistance class) ([1]; mesotrione at four-fold field concentration): poorly-resistant | tolerance to mesotrione (resistance class) ([1]; mesotrione at two-fold field concentration): moderately-resistant | Classification and statistics of the grade of pesticide damage: Grade 0 [1, 4]: 5 | Classification and statistics of the grade of pesticide damage: Grade 1 [1, 4]: 7 | Classification and statistics of the grade of pesticide damage: Grade 2 [1, 4]: 4 | Classification and statistics of the grade of pesticide damage: Grade 3 [1, 4]: 0 | Classification and statistics of the grade of pesticide damage: Grade 0 [1, 5]: 0 | Classification and statistics of the grade of pesticide damage: Grade 1 [1, 5]: 8 | Classification and statistics of the grade of pesticide damage: Grade 2 [1, 5]: 8 | Classification and statistics of the grade of pesticide damage: Grade 3 [1, 5]: 0 | Scores ([1]; pesticide damage score 0-100, mesotrione 210 g ai/ha (two-fold field concentration), 7 DAT, Table 3): 31 | Scores ([1]; pesticide damage score 0-100, mesotrione 420 g ai/ha (4×), 7 DAT, Table 3): 50 | tolerance to isoxaflutole (in words) ([2]; in vivo): different degrees of tolerance | Resistance evaluation ([2]; isoxaflutole 140 g ai/ha): Moderately | Scores ([2]; isoxaflutole 140 g ai/ha): 33 | Resistance evaluation [2, 6]: moderately | Classification and statistics of the grade of pesticide damage Grade 0 ([2]; isoxaflutole 140 g ai/ha): 5 | Classification and statistics of the grade of pesticide damage Grade 1 ([2]; isoxaflutole 140 g ai/ha): 6 | Classification and statistics of the grade of pesticide damage Grade 2 ([2]; isoxaflutole 140 g ai/ha): 5 | Classification and statistics of the grade of pesticide damage Grade 3 ([2]; isoxaflutole 140 g ai/ha): 0 | Resistance evaluation ([2]; isoxaflutole 280 g ai/ha): Poorly | Scores ([2]; isoxaflutole 280 g ai/ha): 67 | Resistance evaluation [2, 7]: poorly resistant (poorly resistant plants (scores 34-67)) | Classification and statistics of the grade of pesticide damage Grade 0 ([2]; isoxaflutole 280 g ai/ha): 0 | Classification and statistics of the grade of pesticide damage Grade 1 ([2]; isoxaflutole 280 g ai/ha): 0 | Classification and statistics of the grade of pesticide damage Grade 2 ([2]; isoxaflutole 280 g ai/ha): 16 | Classification and statistics of the grade of pesticide damage Grade 3 ([2]; isoxaflutole 280 g ai/ha): 0 | tolerance to isoxaflutole (resistance class) ([2]; isoxaflutole at four-fold field concentration): poorly-resistant | tolerance to isoxaflutole (resistance class) ([2]; isoxaflutole at two-fold field concentration): moderately-resistant | Classification and statistics of the grade of pesticide damage: Grade 0 [2, 6]: 5 | Classification and statistics of the grade of pesticide damage: Grade 1 [2, 6]: 6 | Classification and statistics of the grade of pesticide damage: Grade 2 [2, 6]: 5 | Classification and statistics of the grade of pesticide damage: Grade 3 [2, 6]: 0 | Classification and statistics of the grade of pesticide damage: Grade 0 [2, 7]: 0 | Classification and statistics of the grade of pesticide damage: Grade 1 [2, 7]: 0 | Classification and statistics of the grade of pesticide damage: Grade 2 [2, 7]: 16 | Classification and statistics of the grade of pesticide damage: Grade 3 [2, 7]: 0 | Scores ([2]; pesticide damage score 0-100, isoxaflutole 140 g ai/ha (2×), 7 DAT, Table 2): 33 | Scores ([2]; pesticide damage score 0-100, isoxaflutole 280 g ai/ha (4×), 7 DAT, Table 2): 67 | Classification and statistics of the grade of pesticide damage: Grade 0 ([3]; topramezone 100 g ai/ha (4×)): 16 | Classification and statistics of the grade of pesticide damage: Grade 1 ([3]; topramezone 100 g ai/ha (4×)): 0 | Classification and statistics of the grade of pesticide damage: Grade 2 ([3]; topramezone 100 g ai/ha (4×)): 0 | Classification and statistics of the grade of pesticide damage: Grade 3 ([3]; topramezone 100 g ai/ha (4×)): 0 | Classification and statistics of the grade of pesticide damage: Grade 0 ([3]; topramezone 200 g ai/ha (8×)): 16 | Classification and statistics of the grade of pesticide damage: Grade 1 ([3]; topramezone 200 g ai/ha (8×)): 0 | Classification and statistics of the grade of pesticide damage: Grade 2 ([3]; topramezone 200 g ai/ha (8×)): 0 | Classification and statistics of the grade of pesticide damage: Grade 3 ([3]; topramezone 200 g ai/ha (8×)): 0 | Scores ([3]; topramezone 100 g ai/ha (4×)): 0 | Scores ([3]; topramezone 200 g ai/ha (8×)): 0 | Resistance evaluation ([3]; topramezone 100 g ai/ha (4×)): highly resistant (highly resistant plants (scores 0-15)) | Resistance evaluation ([3]; topramezone 200 g ai/ha (8×)): highly resistant (highly resistant plants (scores 0-15)) | tolerance to topramezone (resistance class) ([3]; topramezone at four-fold or eight-fold field concentration): highly-resistant
